Results from US20160039936A1, “FIBROBLAST GROWTH FACTOR RECEPTOR INHIBITION FOR THE TREATMENT OF DISEASE” (UNIVERSITY OF MIAMI, priority 2011, published 2016).

Key:
Type in all cases: cell-based, rat
[1] = tested on: isolated NRVM; experiment: Cross-sectional area (hypertrophy) of isolated NRVM with receptor antagonists (Example 4); conditions: for cross-sectional area of isolated NRVM: 48 h, FGF alone 25 ng/ml vs PBS
Protocol: NRVM were isolated using a standard isolation system (Worthington Biochemical Corporation) (Faul et al., 2011). Hearts from 1-2 day old Sprague Dawley rats were harvested, minced in calcium-and magnesium-free Hank's Balanced Salt Solution (HBSS), and the tissue digested with 50 μg/ml trypsin at 4° C. for 20-24 hours. Soybean trypsin inhibitor in HBSS was added, and the tissue was further digested with collagenase (in Leibovitz L-15 medium) under slow rotation (15 rpm) at 37° C. for 45 minutes. Cells were released by triturating the suspension 20 times with a standard 10 ml plastic serological pipette and filtering it twice through a cell strainer (70 μm, BD Falcon). Cells were incubated at room temperature for 20 minutes and spun at 100 g for 5 minutes. The cell pellet was resuspended in plating medium [Dulbecco's Modified Eagle Medium (DMEM; Cellgro) with 17% Media 199 (Invitrogen), 15% fetal bovine serum (FBS; Invitrogen) and 1% penicillin/streptomycin solution (P/S; Invitrogen)]. Cells were counted using a hemocytometer.
Cells were plated on glass and plastic surfaces, which were coated with laminin (Invitrogen; 10 μg/ml in PBS) at room temperature for 1 hour prior to plating. For immunofluorescence analysis, 3×10^5 cells were seeded per well on glass coverslips in 24-well plates. For Western blot or qPCR analyses of total extracts, 1×10^6 cells were seeded per well in 6-well plates, and for immunoprecipitation assays, 5×10^6 cells were seeded in 10 cm-culture dishes. Cells were left undisturbed in plating medium at 37° C. for 72 hours and then cultured in maintenance medium (DMEM with 20% Media 199, 1% insulin-transferrin-sodium selenite solution [ITS; Sigma-Aldrich] and 1% P/S) in the presence of 100 μM 5-bromo-2′-deoxyuridine (BrdU; Sigam-Aldrich). After 4 days, isolated cardiac myocytes were cultured in BrdU-containing maintenance medium in the presence of recombinant murine FGF23 or FGF2 (both at 25 ng/ml) for different time points.
Cultured cells were fixed in 2% PFA (in 5 mg/ml sucrose) for 5 minutes and permeabilized in 1% Triton X-100 (in PBS) for 10 minutes. We analyzed hypertrophic growth of isolated NRVM and NMVM on laminin-coated glass coverslips after 48 hours of treatment with growth factors. For FGFR4 expression and localization analyses, untreated NMVM from wild-type and FGFR4^−/− mice were immunolabeled. The mouse monoclonal antibody against sarcomeric α-actinin (EA-53; Sigma-Aldrich) was used at 1:1,000, and rabbit polyclonal anti-FGFR4 (C-16; Santa Cruz) at 1:50. Cy3-conjugated goat-anti mouse and Alexa488-conjugated goat-anti rabbit (Jackson Immuno Research) were used as secondary antibodies at 1:300. To visualize nuclei, fixed cells were incubated with 4′,6-diamidino-2-phenylindole (DAPI; 400 ng/ml in PBS) for 10 minutes. Immunofluorescence images were taken on a Leica TCS-SP5 confocal microscope with a 63× oil objective.
Myocyte cross-sectional area was measured based on α-actinin-positive staining using Leica AF6000 fluorescence software. To assess the signaling pathways involved in FGF23- and FGF2-mediated hypertrophy, we analyzed the morphometry of plated cells that were pre-treated with specific inhibitors for 60 minutes prior to the addition of the FGFs at 25 ng/ml (NRVMs) or at 100 ng/ml (NMVMs). The following inhibitors and concentrations were used: pan-FGFR, PD173074 (Sigma-Aldrich) at 10 nM; FGFR1-3, AZD4547 (ChemieTek) at 5 nM; and FGFR4 blocking antibody (human monoclonal, U3-11; U3Pharma) at 10 μg/ml.

[2] = tested on: isolated NRVM; experiment: Signaling immunoblots in NRVM (p-ERK, Egr-1, p-NFAT, p-Akt); conditions: for Egr-1 levels / phosphorylated ERK: 30 and 60 minutes
Protocol: (§1) NRVM were scraped from a 6 cm-plate using 400 μl CHAPS extraction buffer [(20 mM Tris-HCl pH7.5, 500 mM NaCl, 0.5% CHAPS, protease inhibitor cocktail (Roche), protein phosphatase inhibitors (Sigma-Aldrich)] and incubated on ice for 15 minutes. The cell lysate was centrifuged at 14,000 rpm and 4° C. for 15 minutes and the supernatant boiled in sample buffer and analyzed by SDS-PAGE and immunoblotting as described before (Faul et al., Cell Biol., 169(3):415-424, 2005; Faul et al., Mol. Cell Biol., 27(23):8215-8227, 2007). For protein extraction from mouse hearts, tissue was isolated, minced and homogenized in CHAPS extraction buffer at 1:10 (w:v) and protein lysates were prepared as described above. Antibodies to sarcomeric α-actinin (EA-53; Sigma-Aldrich; 1:1000), total (Cell Signaling; 1:1000) and phospho-ERK (Cell Signaling; 1:1000), total and phospho-NFAT-c1 (Santa Cruz Biotechnology; 1:200), total and phospho-Akt (Cell Signaling; 1:1000 and 1:2000), and GAPDH (Abcam; 1:10,000) were used as primary antibodies and horseradish peroxidase conjugated goat-anti-mouse and goat-anti-rabbit (Promega; 1:20,000) were secondary antibodies.

[3] = tested on: isolated NRVM; experiment: Hypertrophic marker expression in NRVM (RT-PCR, α-actinin immunoblot); conditions: for α-actinin protein levels: 48 h, immunoblotting; for expression of ANP and BNP / expression of medium chain acyl-CoA dehydrogenase (MCAD) / expression of α-myosin heavy chain (α-MHC) / expression of β-myosin heavy chain (β-MHC): RT-PCR
Protocol: RNA was purified from isolated NRVM using the RNeasy kit (Qiagen), and from mouse cardiac and renal tissue using 1 ml per 100 mg tissue TRIzol (Invitrogen), following the manufacturers' protocol. Prior to RT-PCR, total RNA samples were digested with DNase I (Roche) and RNA was transcribed into cDNA using Superscript II (Invitrogen). For RT-PCR, 100 ng cDNA, AmpliTaq Gold DNA polymerase (Applied Biosystems) and sequence specific primers were used. 30 cycles (95° C., 5 minutes-53° C., 30 seconds-72° C., 30 seconds) were run on a GeneAmp PCR System 9700 (Applied Biosystems) and reactions were analyzed on a 2% agarose gel. Ethidium bromide signals were captured with a Bio-Rad Gel Doc XR system and quantified by densitometry using ImageJ software (NIH). Values were normalized to GAPDH signals and cDNAs from three independent experiments were analyzed. For nested PCR, 100 ng cDNA were used in the first run (15 cycles) with sequence specific outside primers. Five percent of the reaction was used as template for the second run (25 cycles) with sequence specific inside primers, and the total reaction was analyzed by agarose gel electrophoresis.
as §1

| Molecule | FGF2-induced hypertrophy (cross-sectional area) with receptor antagonist ([1]; NRVM 48 h, FGF2 25 ng/ml, PD173074 10 nM, AZD4547 5 nM, anti-FGFR4 10 μg/ml) | FGF23-induced hypertrophy (cross-sectional area) with receptor antagonist ([1]; NRVM 48 h, FGF23 25 ng/ml, PD173074 10 nM, AZD4547 5 nM, anti-FGFR4 10 μg/ml) | cross-sectional area of isolated NRVM [1] | Egr-1 levels [2] | phosphorylated ERK [2] | phosphorylated NFAT ([2]; after 60 minutes) | α-actinin protein levels [3] | expression of ANP and BNP [3] | expression of medium chain acyl-CoA dehydrogenase (MCAD) [3] | expression of α-myosin heavy chain (α-MHC) [3] | expression of β-myosin heavy chain (β-MHC) [3] | phosphorylated Akt ([2]; after 60 minutes) |
| --- | --- | --- | --- | --- | --- | --- | --- | --- | --- | --- | --- | --- |
| CCN(CC)CCCCNc1ncc2cc(-c3cc(OC)cc(OC)c3)c(NC(=O)NC(C)(C)C)nc2n1 [PD173074] | inhibited | inhibited | – | – | – | – | – | – | – | – | – | – |
| FGF23: recombinant mouse FGF23, 6His-tagged Tyr25-Val251 (Arg179Gln) (R&D Systems) (protein, left off: small tags and cut ends) YPDTSPLLGSNWGSLTHLYTATARTSYHLQIHRDGHVDGTPHQTIYSALMITSEDAGSVVITGAMTRRFLCMDLHGNIFGSLHFSPENCKFRQWTLENGYDVYLSQKHHYLVSLGRAKRIFQPGTNPPPFSQFLARRNEVPLLHFYTVRPRRHTQSAEDPPERDPLNVLKPRPRATPVPVSCSRELPSAEEGGPAASDPLGVLRRGRGDARGGAGGADRCRPFPRFV | – | – | significantly increases | only a modest increase | only a modest increase | modest decrease | increase | increased | decreased | decreased | increased | – |
| FGF2: recombinant mouse FGF2 (Ala11-Ser154) (R&D Systems) (protein) ALPEDGGAAFPPGHFKDPKRLYCKNGGFFLRIHPDGRVDGVREKSDPHVKLQLQAEERGVVSIKGVCANRYLAMKEDGRLLASKCVTEECFFFERLESNNYNTYRSRKYSSWYVALKRTGQYKLGSKTGPGQKAILFLPMSAKS | – | – | significantly increases | increase | robust increase | had no effect | increase | increased | decreased | decreased | increased | modest increase |
